Seven molecules from US20220119477A1 (published 2022) can be followed below.

B1: TCR of Patient 3, alpha 1 and beta (TCR, V domains shown)
Valpha: AQKVTQAQTEISVVEKEDVTLDCVYETRDTTYYLFWYKQPPSGELVFLIRRNSFDEQNEISGRYSWNFQKSTSSFNFTITASQVVDSAVYFCALPDKVIFGPGTSLSVIP
Vbeta: DSGVTQTPKHLITATGQRVTLRCSPRSGDLSVYWYQQSLDQGLQFLIQYYNGEERAKGNILERFSAQQFPDLHSELNLSSLELGDSALYFCASSVSAGSTGELFFGEGSRLTVL
B2: TCR of Patient 3, alpha 2 and beta (TCR, V domains shown)
Valpha: GQQLNQSPQSMFIQEGEDVSMNCTSSSIFNTWLWYKQEPGEGPVLLIALYKAGELTSNGRLTAQFGITRKDSFLNISASIPSDVGIYFCAGLYATNKLIFGTGTLLAVQP
Vbeta: B1 Vbeta
B3: TCR of Patient 1, alpha 1 and beta (growing colony) (TCR, V domains shown)
Valpha: AQSVAQPEDQVNVAEGNPLTVKCTYSVSGNPYLFWYVQYPNRGLQFLLKYITGDNLVKGSYGFEAEFNKSQTSFHLKKPSALVSDSALYFCAVRDGGATNKLIFGTGTLLAVQP
Vbeta: EAQVTQNPRYLITVTGKKLTVTCSQNMNHEYMSWYRQDPGLGLRQIYYSMNVEVTDKGDVPEGYKVSRKEKRNFPLILESPSPNQTSLYFCASSTLGGELFFGEGSRLTVL
B4: TCR of Patient 2, alpha 2 and beta 2 (TCR, V domains shown)
Valpha: GENVEQHPSTLSVQEGDSAVIKCTYSDSASNYFPWYKQELGKRPQLIIDIRSNVGEKKDQRIAVTLNKTAKHFSLHITETQPEDSAVYFCAATSRDDMRFGAGTRLTVKP
Vbeta: DAMVIQNPRYQVTQFGKPVTLSCSQTLNHNVMYWYQQKSSQAPKLLFHYYDKDFNNEADTPDNFQSRRPNTSFCFLDIRSPGLGDAAMYLCATSWGLNEQYFGPGTRLTVT
B5: TCR of Patient 2, alpha 1 and beta 1 (TCR, V domains shown)
Valpha: AQSVTQLDSQVPVFEEAPVELRCNYSSSVSVYLFWYVQYPNQGLQLLLKYLSGSTLVESINGFEAEFNKSQTSFHLRKPSVHISDTAEYFCAVTLLSIEPSAGGYQKVTFGIGTKLQVIP
Vbeta: DTGVSQNPRHKITKRGQNVTFRCDPISEHNRLYWYRQTLGQGPEFLTYFQNEAQLEKSRLLSDRFSAERPKGSFSTLEIQRTEQGDSAMYLCASSLEGRAMPRDSHQETQYFGPGTRLLVL
B6: TCR of Patient 2, alpha 1 and beta 2 (TCR, V domains shown)
Valpha: B5 Valpha
Vbeta: B4 Vbeta
B7: TCR of Patient 2, alpha 2 and beta 1 (TCR, V domains shown)
Valpha: B4 Valpha
Vbeta: B5 Vbeta

The assay concerns the target T1, WT1 peptide on HLA-A*02:01 (human).
T1 peptide: VLDFAPPGA
Briefly: multimer staining.
Consider B1, for which the binding result is “recognises”. Next, B2: “recognises”; B3: “recognises”; B4: “recognises”. As to B5, the binding result is listed as “recognises”. Next, B6: “recognises”; B7: “recognises”.
